This is an account of results in article PMC7367873, “Dissecting the sequence determinants for dephosphorylation by the catalytic subunits of phosphatases PP1 and PP2A” (Nature Communications, 2020).

The test system of test [1] is GFP-14-3-3β and its binding proteins. Description: GFP-14-3-3β co-IP with LC-MS/MS label-free quantification, untreated versus PP1c-treated. Details: species or system human.
The next test deals with GFP-14-3-3β. In words: GFP-14-3-3β co-IP with LC-MS/MS, untreated GFP-14-3-3β versus GFP control (14-3-3 interactome). Type of test: binding, human.
The mark [2] stands for this setting: GFP-14-3-3β co-IP LC-MS/MS, PP1 vs untreated, student's t-test, label-free quantification, 3 replicates each.
Setting [3] is: GFP-14-3-3β co-IP LC-MS/MS, untreated vs GFP, student's t-test, label-free quantification, 3 replicates each.

B1: SLC16A3 (protein, UniProt O15427 2-465, looked up)
Monocarboxylate transporter 4: GGAVVDEGPTGVKAPDGGWGWAVLFGCFVITGFSYAFPKAVSVFFKELIQEFGIGYSDTAWISSILLAMLYGTGPLCSVCVNRFGCRPVMLVGGLFASLGMVAASFCRSIIQVYLTTGVITGLGLALNFQPSLIMLNRYFSKRRPMANGLAAAGSPVFLCALSPLGQLLQDRYGWRGGFLILGGLLLNCCVCAALMRPLVVTAQPGSGPPRPSRRLLDLSVFRDRGFVLYAVAASVMVLGLFVPPVFVVSYAKDLGVPDTKAAFLLTILGFIDIFARPAAGFVAGLGKVRPYSVYLFSFSMFFNGLADLAGSTAGDYGGLVVFCIFFGISYGMVGALQFEVLMAIVGTHKFSSAIGLVLLMEAVAVLVGPPSGGKLLDATHVYMYVFILAGAEVLTSSLILLLGNFFCIRKKPKEPQPEVAAAEEEKLHKPPADSGVDLREVEHFLKAEPEKNGEVVHTPETSV
In the case of B1, the “Difference (log2), PP1 vs untreated” value in test [1] (log2 difference, pairwise comparison PP1 vs untreated, label-free quantification, 3 replicates each) was determined as 1.651. Further, the “Difference (log2), untreated vs GFP” value with GFP-14-3-3β (log2 difference, pairwise comparison untreated vs GFP, label-free quantification, 3 replicates each) came out at 0.1883.

B2: BASP1 (protein, UniProt P80723 2-227, looked up)
Brain acid soluble protein 1: GGKLSKKKKGYNVNDEKAKEKDKKAEGAATEEEGTPKESEPQAAAEPAEAKEGKEKPDQDAEGKAEEKEGEKDAAAAKEEAPKAEPEKTEGAAEAKAEPPKAPEQEQAAPGPAAGGEAPKAAEAAAAPAESAAPAAGEEPSKEEGEPKKTEAPAAPAAQETKSDGAPASDSKPGSSEAAPSSKETPAATEAPSSTPKAQGPAASAEEPKPVEAPAANSDQTVTVKE
B2: in test [1] (setting [2]), the “Difference (log2), PP1 vs untreated” value is given as -0.7159 log2. Also, in the test with GFP-14-3-3β (setting [3]), the “Difference (log2), untreated vs GFP” value is -1.2737 log2.

B3: HNRNPC (protein, UniProt P07910 2-306, looked up)
Heterogeneous nuclear …: ASNVTNKTDPRSMNSRVFIGNLNTLVVKKSDVEAIFSKYGKIVGCSVHKGFAFVQYVNERNARAAVAGEDGRMIAGQVLDINLAAEPKVNRGKAGVKRSAAEMYGSVTEHPSPSPLLSSSFDLDYDFQRDYYDRMYSYPARVPPPPPIARAVVPSKRQRVSGNTSRRGKSGFNSKSGQRGSSKSGKLKGDDLQAIKKELTQIKQKVDSLLENLEKIEKEQSKQAVEMKNDKSEEEQSSSSVKKDETNVKMESEGGADDSAEEGDLLDDDDNEDRGDDQLELIKDDEKEAEEGEDDRDSANGEDDS
Turning to B3, the “Difference (log2), PP1 vs untreated” value in test [1] (setting [2]) is recorded as -0.69 log2. For the same molecule, the “Difference (log2), untreated vs GFP” value in the test with GFP-14-3-3β (setting [3]) is listed as 1.297 log2.

B4: COPB1 (protein, UniProt P53618 2-953, looked up)
Coatomer subunit beta: TAAENVCYTLINVPMDSEPPSEISLKNDLEKGDVKSKTEALKKVIIMILNGEKLPGLLMTIIRFVLPLQDHTIKKLLLVFWEIVPKTTPDGRLLHEMILVCDAYRKDLQHPNEFIRGSTLRFLCKLKEAELLEPLMPAIRACLEHRHSYVRRNAVLAIYTIYRNFEHLIPDAPELIHDFLVNEKDASCKRNAFMMLIHADQDRALDYLSTCIDQVQTFGDILQLVIVELIYKVCHANPSERARFIRCIYNLLQSSSPAVKYEAAGTLVTLSSAPTAIKAAAQCYIDLIIKESDNNVKLIVLDRLIELKEHPAHERVLQDLVMDILRVLSTPDLEVRKKTLQLALDLVSSRNVEELVIVLKKEVIKTNNVSEHEDTDKYRQLLVRTLHSCSVRFPDMAANVIPVLMEFLSDNNEAAAADVLEFVREAIQRFDNLRMLIVEKMLEVFHAIKSVKIYRGALWILGEYCSTKEDIQSVMTEIRRSLGEIPIVESEIKKEAGELKPEEEITVGPVQKLVTEMGTYATQSALSSSRPTKKEEDRPPLRGFLLDGDFFVAASLATTLTKIALRYVALVQEKKKQNSFVAEAMLLMATILHLGKSSLPKKPITDDDVDRISLCLKVLSECSPLMNDIFNKECRQSLSHMLSAKLEEEKLSQKKESEKRNVTVQPDDPISFMQLTAKNEMNCKEDQFQLSLLAAMGNTQRKEAADPLASKLNKVTQLTGFSDPVYAEAYVHVNQYDIVLDVLVVNQTSDTLQNCTLELATLGDLKLVEKPSPLTLAPHDFANIKANVKVASTENGIIFGNIVYDVSGAASDRNCVVLSDIHIDIMDYIQPATCTDAEFRQMWAEFEWENKVTVNTNMVDLNDYLQHILKSTNMKCLTPEKALSGYCGFMAANLYARSIFGEDALANVSIEKPIHQGPDAAVTGHIRIRAKSQGMALSLGDKINLSQKKTSI
For B4, the “Difference (log2), PP1 vs untreated” value in test [1] (PP1 vs untreated, LFQ intensities, replicates 1-3) was -0.8147 log2. Besides, in the test with GFP-14-3-3β (untreated vs GFP, LFQ intensities, replicates 1-3), the “Difference (log2), untreated vs GFP” value stood at 0.6071 log2.

B5: MATR3 (protein, UniProt P43243 2-847, looked up)
Matrin-3: SKSFQQSSLSRDSQGHGRDLSAAGIGLLAAATQSLSMPASLGRMNQGTARLASLMNLGMSSSLNQQGAHSALSSASTSSHNLQSIFNIGSRGPLPLSSQHRGDADQASNILASFGLSARDLDELSRYPEDKITPENLPQILLQLKRRRTEEGPTLSYGRDGRSATREPPYRVPRDDWEEKRHFRRDSFDDRGPSLNPVLDYDHGSRSQESGYYDRMDYEDDRLRDGERCRDDSFFGETSHNYHKFDSEYERMGRGPGPLQERSLFEKKRGAPPSSNIEDFHGLLPKGYPHLCSICDLPVHSNKEWSQHINGASHSRRCQLLLEIYPEWNPDNDTGHTMGDPFMLQQSTNPAPGILGPPPPSFHLGGPAVGPRGNLGAGNGNLQGPRHMQKGRVETSRVVHIMDFQRGKNLRYQLLQLVEPFGVISNHLILNKINEAFIEMATTEDAQAAVDYYTTTPALVFGKPVRVHLSQKYKRIKKPEGKPDQKFDQKQELGRVIHLSNLPHSGYSDSAVLKLAEPYGKIKNYILMRMKSQAFIEMETREDAMAMVDHCLKKALWFQGRCVKVDLSEKYKKLVLRIPNRGIDLLKKDKSRKRSYSPDGKESPSDKKSKTDGSQKTESSTEGKEQEEKSGEDGEKDTKDDQTEQEPNMLLESEDELLVDEEEAAALLESGSSVGDETDLANLGDVASDGKKEPSDKAVKKDGSASAAAKKKLKKVDKIEELDQENEAALENGIKNEENTEPGAESSENADDPNKDTSENADGQSDENKDDYTIPDEYRIGPYQPNVPVGIDYVIPKTGFYCKLCSLFYTNEEVAKNTHCSSLPHYQKLKKFLNKLAEERRQKKET
Turning to B5, in test [1] (setting [2]), the “Difference (log2), PP1 vs untreated” value is listed as -0.7331 log2. In addition, the “Difference (log2), untreated vs GFP” value in the test with GFP-14-3-3β (setting [3]) was determined as 1.234 log2.

B6: SRPRB (protein, UniProt Q9Y5M8 1-271, looked up)
Signal recognition particle …: MASADSRRVADGGGAGGTFQPYLDTLRQELQQTDPTLLSVVVAVLAVLLTLVFWKLIRSRRSSQRAVLLVGLCDSGKTLLFVRLLTGLYRDTQTSITDSCAVYRVNNNRGNSLTLIDLPGHESLRLQFLERFKSSARAIVFVVDSAAFQREVKDVAEFLYQVLIDSMGLKNTPSFLIACNKQDIAMAKSAKLIQQQLEKELNTLRVTRSAAPSTLDSSSTAPAQLGKKGKEFEFSQLPLKVEFLECSAKGGRGDVGSADIQDLEKWLAKIA
For B6, the “Difference (log2), PP1 vs untreated” value in test [1] (setting [2]) was -0.6831 log2. The “Difference (log2), untreated vs GFP” value in the test with GFP-14-3-3β (setting [3]) is given as 1.397 log2.

B7: GNAS (protein, UniProt P63092 2-394, looked up)
Guanine nucleotide-binding …: GCLGNSKTEDQRNEEKAQREANKKIEKQLQKDKQVYRATHRLLLLGAGESGKSTIVKQMRILHVNGFNGEGGEEDPQAARSNSDGEKATKVQDIKNNLKEAIETIVAAMSNLVPPVELANPENQFRVDYILSVMNVPDFDFPPEFYEHAKALWEDEGVRACYERSNEYQLIDCAQYFLDKIDVIKQADYVPSDQDLLRCRVLTSGIFETKFQVDKVNFHMFDVGGQRDERRKWIQCFNDVTAIIFVVASSSYNMVIREDNQTNRLQEALNLFKSIWNNRWLRTISVILFLNKQDLLAEKVLAGKSKIEDYFPEFARYTTPEDATPEPGEDPRVTRAKYFIRDEFLRISTASGDGRHYCYPHFTCAVDTENIRRVFNDCRDIIQRMHLRQYELL
Take B7: the “Difference (log2), PP1 vs untreated” value in test [1] (setting [2]) was -0.7154 log2. Moreover, the “Difference (log2), untreated vs GFP” value with GFP-14-3-3β (setting [3]) was found to be 0.1054 log2.
